“Also recorded” adds a separate entry of the source.
B1: NF357: NF1 fragment, amino acid residues 1175-1531 of human type I neurofibromin (protein, UniProt P21359 1175-1531, looked up, fragment)
chain: TRATFMEVLTKILQQGTEFDTLAETVLADRFERLVELVTMMGDQGELPIAMALANVVPCSQWDELARVLVTLFDSRHLLYQLLWNMFSKEVELADSMQTLFRGNSLASKIMTFCFKVYGATYLQKLLDPLLRIVITSSDWQHVSFEVDPTRLEPSESLEENQRNLLQMTEKFFHAIISSSSEFPPQLRSVCHCLYQATCHSLLNKATVKEKKENKKSVVSQRFPQNSIGAVGSAMFLRFINPAIVSPYEAGILDKKPPPRIERGLKLMSKILQSIANHVLFTKEEHMRPFNDFVKSNFDAARRFFLDIASDCPTSDAVNHSLSFISDGNVLALHRLLWNNQEKIGQYLSSNRDHKAV
B2: NF 266: NF1 fragment, residues 1175-1440 (protein, UniProt P21359 1175-1440, looked up, fragment)
chain: TRATFMEVLTKILQQGTEFDTLAETVLADRFERLVELVTMMGDQGELPIAMALANVVPCSQWDELARVLVTLFDSRHLLYQLLWNMFSKEVELADSMQTLFRGNSLASKIMTFCFKVYGATYLQKLLDPLLRIVITSSDWQHVSFEVDPTRLEPSESLEENQRNLLQMTEKFFHAIISSSSEFPPQLRSVCHCLYQATCHSLLNKATVKEKKENKKSVVSQRFPQNSIGAVGSAMFLRFINPAIVSPYEAGILDKKPPPRIERGLK
B3: NF338: NF1 protein fragment, amino acid residues 1194 to 1531, expressed from retroviral vector pMV7 (protein)
chain: DTLAETVLADRFERLVELVTMMGDQGELPIAMALANVVPCSQWDELARVLVTLFDSRHLLYQLLWNMFSKEVELADSMQTLFRGNSLASKIMTFCFKVYGATYLQKLLDPLLRIVITSSDWQHVSFEVDPTRLEPSESLEENQRNLLQMTEKFFHAIISSSSEFPPQLRSVCHCLYQVVSQRFPQNSIGAVGSAMFLRFINPAIVSPYEAGILDKKPPPRIERGLKLMSKILQSIANHVLFTKEEHMRPFNDFVKSNFDAARRFFLDIASDCPTSDAVNHSLSFISDGNVLALHRLLWNNQEKIGQYLSSNRDHKAVGRRPFDKMATLLAYLGPPEHK
B4: NF 80: NF1 fragment, residues 1452-1531 (protein, UniProt P21359 1452-1531, looked up, fragment)
chain: HVLFTKEEHMRPFNDFVKSNFDAARRFFLDIASDCPTSDAVNHSLSFISDGNVLALHRLLWNNQEKIGQYLSSNRDHKAV
B5: NF 342: NF1 fragment, residues 1190-1531 (protein, UniProt P21359 1190-1531, looked up, fragment)
chain: GTEFDTLAETVLADRFERLVELVTMMGDQGELPIAMALANVVPCSQWDELARVLVTLFDSRHLLYQLLWNMFSKEVELADSMQTLFRGNSLASKIMTFCFKVYGATYLQKLLDPLLRIVITSSDWQHVSFEVDPTRLEPSESLEENQRNLLQMTEKFFHAIISSSSEFPPQLRSVCHCLYQATCHSLLNKATVKEKKENKKSVVSQRFPQNSIGAVGSAMFLRFINPAIVSPYEAGILDKKPPPRIERGLKLMSKILQSIANHVLFTKEEHMRPFNDFVKSNFDAARRFFLDIASDCPTSDAVNHSLSFISDGNVLALHRLLWNNQEKIGQYLSSNRDHKAV
B6: NF 292: NF1 fragment, residues 1205-1496 (protein, UniProt P21359 1205-1496, looked up, fragment)
chain: FERLVELVTMMGDQGELPIAMALANVVPCSQWDELARVLVTLFDSRHLLYQLLWNMFSKEVELADSMQTLFRGNSLASKIMTFCFKVYGATYLQKLLDPLLRIVITSSDWQHVSFEVDPTRLEPSESLEENQRNLLQMTEKFFHAIISSSSEFPPQLRSVCHCLYQATCHSLLNKATVKEKKENKKSVVSQRFPQNSIGAVGSAMFLRFINPAIVSPYEAGILDKKPPPRIERGLKLMSKILQSIANHVLFTKEEHMRPFNDFVKSNFDAARRFFLDIASDCPTSDAVNHSL
B7: NF 327: NF1 fragment, residues 1205-1531 (protein, UniProt P21359 1205-1531, looked up, fragment)
chain: FERLVELVTMMGDQGELPIAMALANVVPCSQWDELARVLVTLFDSRHLLYQLLWNMFSKEVELADSMQTLFRGNSLASKIMTFCFKVYGATYLQKLLDPLLRIVITSSDWQHVSFEVDPTRLEPSESLEENQRNLLQMTEKFFHAIISSSSEFPPQLRSVCHCLYQATCHSLLNKATVKEKKENKKSVVSQRFPQNSIGAVGSAMFLRFINPAIVSPYEAGILDKKPPPRIERGLKLMSKILQSIANHVLFTKEEHMRPFNDFVKSNFDAARRFFLDIASDCPTSDAVNHSLSFISDGNVLALHRLLWNNQEKIGQYLSSNRDHKAV
B8: NF 326: NF1 fragment, residues 1206-1531 (protein, UniProt P21359 1206-1531, looked up, fragment)
chain: ERLVELVTMMGDQGELPIAMALANVVPCSQWDELARVLVTLFDSRHLLYQLLWNMFSKEVELADSMQTLFRGNSLASKIMTFCFKVYGATYLQKLLDPLLRIVITSSDWQHVSFEVDPTRLEPSESLEENQRNLLQMTEKFFHAIISSSSEFPPQLRSVCHCLYQATCHSLLNKATVKEKKENKKSVVSQRFPQNSIGAVGSAMFLRFINPAIVSPYEAGILDKKPPPRIERGLKLMSKILQSIANHVLFTKEEHMRPFNDFVKSNFDAARRFFLDIASDCPTSDAVNHSLSFISDGNVLALHRLLWNNQEKIGQYLSSNRDHKAV

What was measured:
[1] = system: V-HaRas transformed NIH/3T3 cells; test: soft agar colony (SAC) formation by V-HaRas transformed NIH/3T3 cells transfected with NF1 fragment plasmids; type: cell-based; details: for SAC (%), relative soft agar colony forming ability: non-transfected clone #0 = 100; for Colonies/10^3 cells (number of colonies found in soft agar): 1000 cells per plate, 37° C., three weeks
Description: The transfectants were then cloned in the presence of a neomycin analogue, i.e., G418 at 400 ug/ml. The transfectants were initially screened for viability in the G418 medium, following Maruta et al., supra., and Nur-E.-Kamal et al., supra.
After the transfectants were screened for viability, the ability of the parental clone and each surviving transfectant to form soft agar colonies (SAC) were then examined by incubating 1000 cells per plate at 37° C. for three weeks under standard culture conditions, as described in Maruta et al., supra.

[2] = system: c-HaRas protein; test: Ras GTPase stimulating activity: hydrolysis of [gamma-32P] GTP bound to c-HaRas protein, by GST fusion NF1 mutants; type: biochemical, murine; details: for Activation (fold), Ras GTPase activation: 20 ug/ml NF1 mutants; for Activation (fold), Ras GTPase activation / EC50, concentration required for 50% hydrolysis of GTP bound Ras: 25° C., 20 minutes
From the text: N- and C- terminal deletion mutants were constructed by subcloning the corresponding PCR DNA fragments into the bacterial expression vector pGEX-2TH, as described in Maruta et al., supra. FIG. 4 sets forth the DNA fragments inserted into the expression vector. The number following NF of each mutant indicates the total amino acid residues included. The DNA fragments inserted include the DNA for human type I NF357, human type II NF1-GRD (amino acid residues 1355 to 1531 in addition to the insert of 21 amino acids) and murine c-HaRas (residues 1-189). The type II-specific insert of 21 amino acids is indicated by the number 21 above a triangle following codon 1371. This 21 amino acid insert is set forth in SEQ ID NO: 2. The solid rectangle indicates the GAP active center of 56 amino acids, whereas the shaded rectangle indicates a supporting domain of 22 amino acids.
The expression vectors were transfected into E.coli and the protein expressed as GST fusion proteins. The fusion proteins were thereafter purified from E.coli as glutathione S-transfeRase fusion proteins and affinity-purified on a glutathione (GSH)-agarose column, as described in Maruta, et al., supra.
The purified proteins were then screened for Ras GTPase stimulating activity. The assay was carried out for each of the NF357 deletion mutants.
The hydrolysis of [gamma-^32 P] GTP bound to c-HaRas protein was determined by incubating with bound protein at 25° C. for 20 minutes in the presence or absence of each NF1 mutant preparation in 100 ul of a buffer containing 50 mMTris-HCl, pH 7.5, 15 mMMgCl2, 2.5 mM EDTA, 3 mM ATP, 1 mM dithiothreitol (DTT) and 0.5 mg/ml bovine serum albumin (BSA), then precipitating the unhydrolyzed [gamma-32P] GTP with charcoal, and finally measuring the radioactivity of the [gamma-32P] inorganic phosphate in the supernatant, as described previously, Maruta et al., supra. Protein concentrations were determined by the Bradford method with BSA as a standard.

[3] = system: V-HaRas transformed NIH/3T3 cells; test: morphology of V-HaRas transformed NIH/3T3 cells overexpressing NF1 fragments; type: cell-based; details: liquid culture; compared with parental V-HaRas transformed cells
[4] = clone #8, relatively low (L) steady-state mRNA level

| Molecule | Activation (fold), Ras GTPase activation [2] [fold] | EC50, concentration required for 50% hydrolysis of GTP bound Ras [2] [µg/mL] | further results |
| --- | --- | --- | --- |
| NF56: NF1 fragment, amino acid residues 1441 to 1496 (RPFNDFVKSNFDAARRFFLDIASDCPTSDAVNHSLSFISDGNVLALHRLLWNNQEK) | 0 |  | reversion of activated Ras induced transformation (in words) ([1]; expression of the fragment in transformed cells): leads to reversion of activated Ras induced transformation; also recorded: capable of reversing Ras transformation; Ras GTPase stimulation (in words) [2]: no longer able to stimulate Ras GTPase activity; also recorded: cannot stimulate; also recorded: does not stimulate GTPase activity; also recorded: not capable of GTPase activation |
| B1 | 14 | 0.50 | GTPase activity, times more active than NF91 [2]: twenty |
| B2 | 0 |  |  |
| B3 |  |  | SAC (%), relative soft agar colony forming ability ([1]; clone #8, relatively low (L) mRNA level): 5%; average size of the soft agar colony [1, 4]: medium; Colonies/10^3 cells (number of colonies found in soft agar) [1, 4]: 37 Colonies/10^3 cells; SAC (%), relative soft agar colony forming ability ([1]; clones with relatively high (H) mRNA level): 0.4%; Colonies/10^3 cells (number of colonies found in soft agar) ([1]; clones with relatively high (H) steady-state mRNA level): 3 Colonies/10^3 cells; ability to form soft agar colonies (in words) ([1]; compared with non-transfected parental V-HaRas transformed cells): greatly reduced; cell morphology [3]: differed significantly |
| B4 | 0 |  |  |
| B5 | 14 | 0.52 |  |
| B6 | 11 | 7.5 | Ras GTPase stimulation (in words) [2]: stimulate normal Ras GTPase activity |
| B7 | 14 | 0.40 |  |
| B8 | 11 | 1.5 |  |

From patent US5580955A, “Fragments of neurofibromin (NF1) and method to reverse activated ras induced malignant transformation in mammalian cells” (Ludwig Institute for Cancer Research, priority 1995, dated 1996)
